Reference: patent US12630600B2 (MEDIMMUNE LIMITED, priority 2022, dated 2026)
Starred links: 1 amine or outer side, 2 acyl side, 3 side chain; linkers in the order of their positions; H or OH if unused. Non-standard residues stand in square brackets, D forms with d. Groups on a side chain read outwards from the residue. No end group written: not given here. *: point of attachment. C20 diacid = O=C(O)CCCCCCCCCCCCCCCCCCC(=O)*; C18 diacid = O=C(O)CCCCCCCCCCCCCCCCC(=O)*; γGlu = O=C(O)[C@H](CCC(=O)[*:2])N[*:1]; αMeF = C[C@](N)(Cc1ccccc1)C(=O)O; NMeQ = CN[C@@H](CCC(N)=O)C(=O)O; AEEA = NCCOCCOCC(=O)O; Aib = CC(C)(N)C(=O)O

B1: Peptide 342 (peptide)
peptide: H[Aib]QGTFTSDYSK[αMeF]LDSRRAK([γGlu-C18 diacid])DFVQWLLE[Aib]T-OH
modifications: N-terminus assumed
SMILES: CC(C)C[C@H](NC(=O)[C@H](Cc1c[nH]c2ccccc12)NC(=O)[C@H](CCC(N)=O)NC(=O)[C@@H](NC(=O)[C@H](Cc1ccccc1)NC(=O)[C@H](CC(=O)O)NC(=O)[C@H](CCCCNC(=O)CC[C@H](NC(=O)CCCCCCCCCCCCCCCCC(=O)O)C(=O)O)NC(=O)[C@H](C)NC(=O)[C@H](CCCNC(=N)N)NC(=O)[C@H](CCCNC(=N)N)NC(=O)[C@H](CO)NC(=O)[C@H](CC(=O)O)NC(=O)[C@H](CC(C)C)NC(=O)[C@](C)(Cc1ccccc1)NC(=O)[C@H](CCCCN)NC(=O)[C@H](CO)NC(=O)[C@H](Cc1ccc(O)cc1)NC(=O)[C@H](CC(=O)O)NC(=O)[C@H](CO)NC(=O)[C@@H](NC(=O)[C@H](Cc1ccccc1)NC(=O)[C@@H](NC(=O)CNC(=O)[C@H](CCC(N)=O)NC(=O)C(C)(C)NC(=O)[C@@H](N)Cc1c[nH]cn1)[C@@H](C)O)[C@@H](C)O)C(C)C)C(=O)N[C@@H](CC(C)C)C(=O)N[C@@H](CCC(=O)O)C(=O)NC(C)(C)C(=O)N[C@H](C(=O)O)[C@@H](C)O
B2: Peptide 525 (peptide)
peptide: H[Aib]QGTFTSDVSK[αMeF]LDSERAK([AEEA-AEEA-γGlu-C18 diacid])DFVQWLEA[Aib]G-OH
modifications: N-terminus assumed
SMILES: CC(C)C[C@H](NC(=O)[C@H](Cc1c[nH]c2ccccc12)NC(=O)[C@H](CCC(N)=O)NC(=O)[C@@H](NC(=O)[C@H](Cc1ccccc1)NC(=O)[C@H](CC(=O)O)NC(=O)[C@H](CCCCNC(=O)COCCOCCNC(=O)COCCOCCNC(=O)CC[C@H](NC(=O)CCCCCCCCCCCCCCCCC(=O)O)C(=O)O)NC(=O)[C@H](C)NC(=O)[C@H](CCCNC(=N)N)NC(=O)[C@H](CCC(=O)O)NC(=O)[C@H](CO)NC(=O)[C@H](CC(=O)O)NC(=O)[C@H](CC(C)C)NC(=O)[C@](C)(Cc1ccccc1)NC(=O)[C@H](CCCCN)NC(=O)[C@H](CO)NC(=O)[C@@H](NC(=O)[C@H](CC(=O)O)NC(=O)[C@H](CO)NC(=O)[C@@H](NC(=O)[C@H](Cc1ccccc1)NC(=O)[C@@H](NC(=O)CNC(=O)[C@H](CCC(N)=O)NC(=O)C(C)(C)NC(=O)[C@@H](N)Cc1c[nH]cn1)[C@@H](C)O)[C@@H](C)O)C(C)C)C(C)C)C(=O)N[C@@H](CCC(=O)O)C(=O)N[C@@H](C)C(=O)NC(C)(C)C(=O)NCC(=O)O
B3: Peptide 325 (peptide)
peptide: HS[NMeQ]GS[αMeF]TSDVSK[αMeF]LDSRAAK([AEEA-AEEA-γGlu-C18 diacid])D[αMeF]VQ[Aib]IANT-NH2
modifications: N-terminus assumed
SMILES: CC[C@H](C)[C@H](NC(=O)C(C)(C)NC(=O)[C@H](CCC(N)=O)NC(=O)[C@@H](NC(=O)[C@](C)(Cc1ccccc1)NC(=O)[C@H](CC(=O)O)NC(=O)[C@H](CCCCNC(=O)COCCOCCNC(=O)COCCOCCNC(=O)CC[C@H](NC(=O)CCCCCCCCCCCCCCCCC(=O)O)C(=O)O)NC(=O)[C@H](C)NC(=O)[C@H](C)NC(=O)[C@H](CCCNC(=N)N)NC(=O)[C@H](CO)NC(=O)[C@H](CC(=O)O)NC(=O)[C@H](CC(C)C)NC(=O)[C@](C)(Cc1ccccc1)NC(=O)[C@H](CCCCN)NC(=O)[C@H](CO)NC(=O)[C@@H](NC(=O)[C@H](CC(=O)O)NC(=O)[C@H](CO)NC(=O)[C@@H](NC(=O)[C@](C)(Cc1ccccc1)NC(=O)[C@H](CO)NC(=O)CNC(=O)[C@H](CCC(N)=O)N(C)C(=O)[C@H](CO)NC(=O)[C@@H](N)Cc1c[nH]cn1)[C@@H](C)O)C(C)C)C(C)C)C(=O)N[C@@H](C)C(=O)N[C@@H](CC(N)=O)C(=O)N[C@H](C(N)=O)[C@@H](C)O
B4: Peptide 523 (peptide)
peptide: H[Aib]QGTFTSDVSK[αMeF]LDSERAK([AEEA-AEEA-γGlu-C20 diacid])DFVAWLEAGG-OH
modifications: N-terminus assumed
SMILES: CC(C)C[C@H](NC(=O)[C@H](Cc1c[nH]c2ccccc12)NC(=O)[C@H](C)NC(=O)[C@@H](NC(=O)[C@H](Cc1ccccc1)NC(=O)[C@H](CC(=O)O)NC(=O)[C@H](CCCCNC(=O)COCCOCCNC(=O)COCCOCCNC(=O)CC[C@H](NC(=O)CCCCCCCCCCCCCCCCCCC(=O)O)C(=O)O)NC(=O)[C@H](C)NC(=O)[C@H](CCCNC(=N)N)NC(=O)[C@H](CCC(=O)O)NC(=O)[C@H](CO)NC(=O)[C@H](CC(=O)O)NC(=O)[C@H](CC(C)C)NC(=O)[C@](C)(Cc1ccccc1)NC(=O)[C@H](CCCCN)NC(=O)[C@H](CO)NC(=O)[C@@H](NC(=O)[C@H](CC(=O)O)NC(=O)[C@H](CO)NC(=O)[C@@H](NC(=O)[C@H](Cc1ccccc1)NC(=O)[C@@H](NC(=O)CNC(=O)[C@H](CCC(N)=O)NC(=O)C(C)(C)NC(=O)[C@@H](N)Cc1c[nH]cn1)[C@@H](C)O)[C@@H](C)O)C(C)C)C(C)C)C(=O)N[C@@H](CCC(=O)O)C(=O)N[C@@H](C)C(=O)NCC(=O)NCC(=O)O
B5: Peptide 339 (peptide)
peptide: H[Aib]QGTFTSDYSK[αMeF]LD[αMeF]RRAK([γGlu-C18 diacid])DFVQWLL[Aib]T-OH
modifications: N-terminus assumed
SMILES: CC(C)C[C@H](NC(=O)[C@H](Cc1c[nH]c2ccccc12)NC(=O)[C@H](CCC(N)=O)NC(=O)[C@@H](NC(=O)[C@H](Cc1ccccc1)NC(=O)[C@H](CC(=O)O)NC(=O)[C@H](CCCCNC(=O)CC[C@H](NC(=O)CCCCCCCCCCCCCCCCC(=O)O)C(=O)O)NC(=O)[C@H](C)NC(=O)[C@H](CCCNC(=N)N)NC(=O)[C@H](CCCNC(=N)N)NC(=O)[C@](C)(Cc1ccccc1)NC(=O)[C@H](CC(=O)O)NC(=O)[C@H](CC(C)C)NC(=O)[C@](C)(Cc1ccccc1)NC(=O)[C@H](CCCCN)NC(=O)[C@H](CO)NC(=O)[C@H](Cc1ccc(O)cc1)NC(=O)[C@H](CC(=O)O)NC(=O)[C@H](CO)NC(=O)[C@@H](NC(=O)[C@H](Cc1ccccc1)NC(=O)[C@@H](NC(=O)CNC(=O)[C@H](CCC(N)=O)NC(=O)C(C)(C)NC(=O)[C@@H](N)Cc1c[nH]cn1)[C@@H](C)O)[C@@H](C)O)C(C)C)C(=O)N[C@@H](CC(C)C)C(=O)NC(C)(C)C(=O)N[C@H](C(=O)O)[C@@H](C)O
B6: Peptide 524 (peptide)
peptide: H[Aib]QGTFTSDVSE[αMeF]LDSERAK([AEEA-AEEA-γGlu-C18 diacid])DFVRWLEAGG-OH
modifications: N-terminus assumed
SMILES: CC(C)C[C@H](NC(=O)[C@H](Cc1c[nH]c2ccccc12)NC(=O)[C@H](CCCNC(=N)N)NC(=O)[C@@H](NC(=O)[C@H](Cc1ccccc1)NC(=O)[C@H](CC(=O)O)NC(=O)[C@H](CCCCNC(=O)COCCOCCNC(=O)COCCOCCNC(=O)CC[C@H](NC(=O)CCCCCCCCCCCCCCCCC(=O)O)C(=O)O)NC(=O)[C@H](C)NC(=O)[C@H](CCCNC(=N)N)NC(=O)[C@H](CCC(=O)O)NC(=O)[C@H](CO)NC(=O)[C@H](CC(=O)O)NC(=O)[C@H](CC(C)C)NC(=O)[C@](C)(Cc1ccccc1)NC(=O)[C@H](CCC(=O)O)NC(=O)[C@H](CO)NC(=O)[C@@H](NC(=O)[C@H](CC(=O)O)NC(=O)[C@H](CO)NC(=O)[C@@H](NC(=O)[C@H](Cc1ccccc1)NC(=O)[C@@H](NC(=O)CNC(=O)[C@H](CCC(N)=O)NC(=O)C(C)(C)NC(=O)[C@@H](N)Cc1c[nH]cn1)[C@@H](C)O)[C@@H](C)O)C(C)C)C(C)C)C(=O)N[C@@H](CCC(=O)O)C(=O)N[C@@H](C)C(=O)NCC(=O)NCC(=O)O
B7: Peptide 340 (peptide)
peptide: H[Aib]QGTFTSDYSK[αMeF]LDSRRAK([γGlu-C18 diacid])DFVQWLL[Aib]E-OH
modifications: N-terminus assumed
SMILES: CC(C)C[C@H](NC(=O)[C@H](Cc1c[nH]c2ccccc12)NC(=O)[C@H](CCC(N)=O)NC(=O)[C@@H](NC(=O)[C@H](Cc1ccccc1)NC(=O)[C@H](CC(=O)O)NC(=O)[C@H](CCCCNC(=O)CC[C@H](NC(=O)CCCCCCCCCCCCCCCCC(=O)O)C(=O)O)NC(=O)[C@H](C)NC(=O)[C@H](CCCNC(=N)N)NC(=O)[C@H](CCCNC(=N)N)NC(=O)[C@H](CO)NC(=O)[C@H](CC(=O)O)NC(=O)[C@H](CC(C)C)NC(=O)[C@](C)(Cc1ccccc1)NC(=O)[C@H](CCCCN)NC(=O)[C@H](CO)NC(=O)[C@H](Cc1ccc(O)cc1)NC(=O)[C@H](CC(=O)O)NC(=O)[C@H](CO)NC(=O)[C@@H](NC(=O)[C@H](Cc1ccccc1)NC(=O)[C@@H](NC(=O)CNC(=O)[C@H](CCC(N)=O)NC(=O)C(C)(C)NC(=O)[C@@H](N)Cc1c[nH]cn1)[C@@H](C)O)[C@@H](C)O)C(C)C)C(=O)N[C@@H](CC(C)C)C(=O)NC(C)(C)C(=O)N[C@@H](CCC(=O)O)C(=O)O
B8: Peptide 522 (peptide)
peptide: H[Aib]QGTFTSDVSK[αMeF]LDSERAK([AEEA-AEEA-γGlu-C18 diacid])DFVAWLEAGG-OH
modifications: N-terminus assumed
SMILES: CC(C)C[C@H](NC(=O)[C@H](Cc1c[nH]c2ccccc12)NC(=O)[C@H](C)NC(=O)[C@@H](NC(=O)[C@H](Cc1ccccc1)NC(=O)[C@H](CC(=O)O)NC(=O)[C@H](CCCCNC(=O)COCCOCCNC(=O)COCCOCCNC(=O)CC[C@H](NC(=O)CCCCCCCCCCCCCCCCC(=O)O)C(=O)O)NC(=O)[C@H](C)NC(=O)[C@H](CCCNC(=N)N)NC(=O)[C@H](CCC(=O)O)NC(=O)[C@H](CO)NC(=O)[C@H](CC(=O)O)NC(=O)[C@H](CC(C)C)NC(=O)[C@](C)(Cc1ccccc1)NC(=O)[C@H](CCCCN)NC(=O)[C@H](CO)NC(=O)[C@@H](NC(=O)[C@H](CC(=O)O)NC(=O)[C@H](CO)NC(=O)[C@@H](NC(=O)[C@H](Cc1ccccc1)NC(=O)[C@@H](NC(=O)CNC(=O)[C@H](CCC(N)=O)NC(=O)C(C)(C)NC(=O)[C@@H](N)Cc1c[nH]cn1)[C@@H](C)O)[C@@H](C)O)C(C)C)C(C)C)C(=O)N[C@@H](CCC(=O)O)C(=O)N[C@@H](C)C(=O)NCC(=O)NCC(=O)O

What follows are binders tested against human GLP-1 receptor (human, UniProt P43220) (assay: cell-based or functional assay).

Binder | hGLP-1R EC50 (pM)
B1 | 220 pM
B2 | 177 pM
B3 | 929 pM
B4 | 615 pM
B5 | 312 pM
B6 | 366 pM
B7 | 312 pM
B8 | 508 pM
H[dS]QGS[αMeF]TSDVSK[αMeF]LDSRAAK([AEEA-AEEA-γGlu-C18 diacid])D[αMeF]VQ[Aib]IANT [Peptide 331] | 62.6 pM

These binders were tested against human glucagon receptor (human, UniProt P47871) (assay: cell-based or functional assay).

Binder | hGluc-R EC50 (pM)
B1 | 4830 pM
B2 | 2450 pM
B3 | > 25500 pM
B4 | > 24700 pM
B5 | 70.3 pM
B6 | > 24400 pM
B7 | 94.7 pM
B8 | 6360 pM
H[dS]QGS[αMeF]TSDVSK[αMeF]LDSRAAK([AEEA-AEEA-γGlu-C18 diacid])D[αMeF]VQ[Aib]IANT [Peptide 331] | 66.6 pM
